This note sets out measurements from the supplement of paper PMC10065799, “High-throughput profiling of sequence recognition by tyrosine kinases and SH2 domains using bacterial peptide display” (eLife, 2023).

One data set addresses Grb2 SH2 (UniProt P62993). As to the kind of experiment: SH2 binding enrichment of the phosphorylated peptide, bacterial display (enrichment ratio); higher = better substrate or ligand; peptides without Tyr show the background.
The target in another data set is SHP2-C SH2. The data set is described as above.
Another data set has as its target c-Src SH2. The description is as above.
A further data set addresses Fes (UniProt P07332). Put plainly: phosphorylation enrichment, bacterial display (enrichment ratio); higher = better substrate or ligand; peptides without Tyr show the background.
For another data set, the target named is Jak2 (UniProt O60674). The description is as above.
Sequence of Jak2 (O60674 whole entry, looked up): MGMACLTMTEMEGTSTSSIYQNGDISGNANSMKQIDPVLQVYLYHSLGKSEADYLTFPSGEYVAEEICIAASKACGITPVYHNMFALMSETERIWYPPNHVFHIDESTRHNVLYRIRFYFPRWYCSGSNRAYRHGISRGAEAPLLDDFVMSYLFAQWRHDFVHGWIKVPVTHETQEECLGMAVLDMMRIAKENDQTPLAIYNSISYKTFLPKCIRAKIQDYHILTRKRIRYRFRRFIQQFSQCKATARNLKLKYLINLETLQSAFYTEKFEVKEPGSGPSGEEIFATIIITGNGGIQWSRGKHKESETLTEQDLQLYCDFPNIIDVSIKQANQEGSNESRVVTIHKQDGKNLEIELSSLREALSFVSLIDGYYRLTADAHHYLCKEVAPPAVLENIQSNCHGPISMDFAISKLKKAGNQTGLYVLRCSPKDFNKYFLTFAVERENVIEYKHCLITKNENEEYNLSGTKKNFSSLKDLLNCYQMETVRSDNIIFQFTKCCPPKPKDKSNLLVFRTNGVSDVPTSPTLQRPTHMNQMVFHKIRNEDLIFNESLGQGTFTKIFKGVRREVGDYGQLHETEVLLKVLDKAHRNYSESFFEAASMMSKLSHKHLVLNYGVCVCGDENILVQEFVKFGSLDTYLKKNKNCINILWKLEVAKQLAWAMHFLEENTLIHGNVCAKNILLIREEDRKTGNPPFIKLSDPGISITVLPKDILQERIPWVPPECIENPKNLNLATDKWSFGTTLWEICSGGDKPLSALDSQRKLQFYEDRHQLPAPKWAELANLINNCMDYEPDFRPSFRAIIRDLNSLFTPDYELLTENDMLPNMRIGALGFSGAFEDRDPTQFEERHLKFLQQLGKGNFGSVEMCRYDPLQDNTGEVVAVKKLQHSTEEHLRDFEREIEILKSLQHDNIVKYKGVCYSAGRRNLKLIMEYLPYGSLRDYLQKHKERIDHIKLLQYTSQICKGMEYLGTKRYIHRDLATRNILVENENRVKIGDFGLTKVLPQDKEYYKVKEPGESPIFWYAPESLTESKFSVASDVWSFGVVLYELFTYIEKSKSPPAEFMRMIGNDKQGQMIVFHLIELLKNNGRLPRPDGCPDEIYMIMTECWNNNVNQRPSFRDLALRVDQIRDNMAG
The target in the next data set is Fyn (UniProt P06241). The data set is described as above.
Sequence of Fyn (P06241 whole entry, looked up): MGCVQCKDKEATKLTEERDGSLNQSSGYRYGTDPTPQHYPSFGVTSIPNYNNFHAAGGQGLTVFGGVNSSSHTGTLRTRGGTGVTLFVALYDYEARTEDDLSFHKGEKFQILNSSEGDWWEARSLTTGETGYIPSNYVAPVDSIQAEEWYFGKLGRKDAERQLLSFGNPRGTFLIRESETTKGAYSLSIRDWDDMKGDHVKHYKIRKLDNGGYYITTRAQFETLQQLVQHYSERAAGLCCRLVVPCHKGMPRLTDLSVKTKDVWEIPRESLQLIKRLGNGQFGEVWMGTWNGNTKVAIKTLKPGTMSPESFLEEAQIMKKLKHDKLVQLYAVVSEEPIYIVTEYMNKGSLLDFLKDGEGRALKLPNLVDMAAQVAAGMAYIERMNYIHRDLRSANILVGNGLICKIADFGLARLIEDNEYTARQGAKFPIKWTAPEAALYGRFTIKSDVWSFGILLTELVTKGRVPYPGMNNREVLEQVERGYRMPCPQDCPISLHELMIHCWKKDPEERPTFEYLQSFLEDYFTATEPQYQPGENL
The next data set relates to Fer (mouse). Described as above.
In the next data set the target is FGFR3 (UniProt P22607). The data set is described as above.
Sequence of FGFR3 (P22607 whole entry, looked up): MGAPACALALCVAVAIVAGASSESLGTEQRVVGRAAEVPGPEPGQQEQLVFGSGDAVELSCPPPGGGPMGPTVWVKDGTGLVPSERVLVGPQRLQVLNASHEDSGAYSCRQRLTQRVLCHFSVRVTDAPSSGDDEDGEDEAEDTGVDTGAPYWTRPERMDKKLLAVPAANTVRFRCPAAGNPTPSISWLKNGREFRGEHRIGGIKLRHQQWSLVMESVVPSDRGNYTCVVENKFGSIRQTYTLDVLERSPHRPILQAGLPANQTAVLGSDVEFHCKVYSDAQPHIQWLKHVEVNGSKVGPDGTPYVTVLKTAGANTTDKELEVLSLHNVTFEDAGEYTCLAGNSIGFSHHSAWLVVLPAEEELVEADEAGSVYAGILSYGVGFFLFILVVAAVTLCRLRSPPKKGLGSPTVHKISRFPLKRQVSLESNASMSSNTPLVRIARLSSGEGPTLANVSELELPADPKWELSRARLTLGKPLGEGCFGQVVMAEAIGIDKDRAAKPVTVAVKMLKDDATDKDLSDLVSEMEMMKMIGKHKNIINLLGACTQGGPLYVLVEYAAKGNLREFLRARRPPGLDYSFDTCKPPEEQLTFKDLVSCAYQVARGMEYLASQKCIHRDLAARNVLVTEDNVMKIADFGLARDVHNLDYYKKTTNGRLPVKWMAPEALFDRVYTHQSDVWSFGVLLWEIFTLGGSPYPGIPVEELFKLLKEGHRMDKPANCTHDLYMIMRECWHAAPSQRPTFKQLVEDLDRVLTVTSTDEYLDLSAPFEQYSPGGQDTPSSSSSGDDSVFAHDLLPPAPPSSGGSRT
The target in the next data set is FGFR1 (UniProt P11362). The data set is described as above.
Sequence of FGFR1 (P11362 whole entry, looked up): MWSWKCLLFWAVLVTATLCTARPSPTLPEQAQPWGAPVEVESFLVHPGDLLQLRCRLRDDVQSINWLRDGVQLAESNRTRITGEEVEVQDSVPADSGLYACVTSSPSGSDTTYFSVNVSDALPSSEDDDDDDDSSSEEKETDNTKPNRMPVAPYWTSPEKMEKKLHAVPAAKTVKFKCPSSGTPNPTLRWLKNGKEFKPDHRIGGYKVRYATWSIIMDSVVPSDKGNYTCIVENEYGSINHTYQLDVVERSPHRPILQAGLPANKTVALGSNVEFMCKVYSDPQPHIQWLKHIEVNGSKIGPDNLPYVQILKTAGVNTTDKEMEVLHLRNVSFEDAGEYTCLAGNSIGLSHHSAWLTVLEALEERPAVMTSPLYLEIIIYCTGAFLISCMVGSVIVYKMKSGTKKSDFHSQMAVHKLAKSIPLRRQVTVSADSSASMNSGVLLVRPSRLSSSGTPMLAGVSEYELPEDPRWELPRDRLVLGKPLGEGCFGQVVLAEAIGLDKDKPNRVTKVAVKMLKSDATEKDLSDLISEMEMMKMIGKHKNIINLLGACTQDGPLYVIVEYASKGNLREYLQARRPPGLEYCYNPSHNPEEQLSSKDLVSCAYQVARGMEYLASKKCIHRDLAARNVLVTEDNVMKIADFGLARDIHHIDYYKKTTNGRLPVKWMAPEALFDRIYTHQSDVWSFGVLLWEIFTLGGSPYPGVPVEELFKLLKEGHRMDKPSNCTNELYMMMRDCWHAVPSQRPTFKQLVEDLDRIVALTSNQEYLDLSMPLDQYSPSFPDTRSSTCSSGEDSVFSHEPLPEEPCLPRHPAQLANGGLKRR
Another data set has as its target Hck (UniProt P08631). The description is as above.
In a further data set the target is MERTK (UniProt Q12866). Described as above.
In a further data set the test system is c-Src. Described as above.
The target in the next data set is EPHB1 (UniProt P54762). The description is as above.
A further data set relates to AncSZ. The data set is described as above.
In another data set the target is EPHB2 (UniProt P29323). The data set is described as above.
The next data set deals with c-Abl (mouse). The description is as above.
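Throughout, for SH2 binding enrichment of the phosphorylated peptide, bacterial display: peptide library displayed on the E. coli surface as eCPX fusions, selected cells deep-sequenced, score is each peptide's frequency after selection divided by its frequency in the input.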
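Throughout, for phosphorylation enrichment, bacterial display: 11-residue human phosphosite peptides and single-mutation variants displayed on the E. coli surface, counted by deep sequencing, each peptide's frequency after selection divided by its frequency in the unselected input library; frequency after pTyr selection over input frequency; kinase dosed for 20-30% of maximal phosphorylation in three min.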

Sequence of Fes (P07332 whole entry, looked up): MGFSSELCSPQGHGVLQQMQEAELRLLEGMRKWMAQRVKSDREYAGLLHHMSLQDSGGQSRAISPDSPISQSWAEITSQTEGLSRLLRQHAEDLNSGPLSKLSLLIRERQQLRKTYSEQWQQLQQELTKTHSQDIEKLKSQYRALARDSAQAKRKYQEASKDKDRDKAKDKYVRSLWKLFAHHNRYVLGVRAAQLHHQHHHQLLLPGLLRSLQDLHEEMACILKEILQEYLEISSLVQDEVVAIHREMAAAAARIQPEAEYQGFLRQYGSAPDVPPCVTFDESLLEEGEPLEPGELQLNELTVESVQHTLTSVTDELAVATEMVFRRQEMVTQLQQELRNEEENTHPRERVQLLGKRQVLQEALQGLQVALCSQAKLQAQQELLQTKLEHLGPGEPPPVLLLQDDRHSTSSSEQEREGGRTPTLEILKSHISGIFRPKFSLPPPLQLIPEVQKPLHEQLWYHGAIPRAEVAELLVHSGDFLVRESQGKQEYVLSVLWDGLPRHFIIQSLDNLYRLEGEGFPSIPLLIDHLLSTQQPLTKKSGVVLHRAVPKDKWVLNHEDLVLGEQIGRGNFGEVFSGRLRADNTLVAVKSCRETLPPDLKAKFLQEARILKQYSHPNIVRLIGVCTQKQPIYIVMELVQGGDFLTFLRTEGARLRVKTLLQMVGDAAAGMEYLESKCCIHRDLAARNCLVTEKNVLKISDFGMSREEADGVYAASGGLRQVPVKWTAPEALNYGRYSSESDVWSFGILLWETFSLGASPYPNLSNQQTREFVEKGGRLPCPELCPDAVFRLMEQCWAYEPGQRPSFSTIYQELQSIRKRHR
Sequence of Grb2 SH2 (P62993 whole entry, looked up): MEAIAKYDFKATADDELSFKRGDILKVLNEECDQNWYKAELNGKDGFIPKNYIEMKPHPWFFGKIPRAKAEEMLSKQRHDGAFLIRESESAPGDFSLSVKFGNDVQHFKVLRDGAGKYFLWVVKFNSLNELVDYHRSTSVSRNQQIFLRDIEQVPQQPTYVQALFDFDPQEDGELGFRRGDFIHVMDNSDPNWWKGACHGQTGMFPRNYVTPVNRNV
Sequence of Hck (P08631 whole entry, looked up): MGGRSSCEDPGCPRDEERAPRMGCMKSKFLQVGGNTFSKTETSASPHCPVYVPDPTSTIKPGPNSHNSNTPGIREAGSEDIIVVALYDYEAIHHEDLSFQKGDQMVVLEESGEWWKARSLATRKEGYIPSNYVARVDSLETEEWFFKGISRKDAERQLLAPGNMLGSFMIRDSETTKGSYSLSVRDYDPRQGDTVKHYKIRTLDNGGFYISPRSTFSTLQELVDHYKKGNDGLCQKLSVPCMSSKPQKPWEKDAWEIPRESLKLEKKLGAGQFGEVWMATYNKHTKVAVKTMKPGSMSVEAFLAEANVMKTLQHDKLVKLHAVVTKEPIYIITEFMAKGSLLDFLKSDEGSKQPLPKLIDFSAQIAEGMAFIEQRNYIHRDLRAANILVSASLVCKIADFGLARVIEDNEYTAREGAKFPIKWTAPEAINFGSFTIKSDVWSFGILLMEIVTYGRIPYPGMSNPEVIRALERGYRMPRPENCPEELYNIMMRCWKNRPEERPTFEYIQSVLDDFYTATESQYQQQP

GLPQTYCVSGP [DYSF_Y1684]: the SH2 binding enrichment came out at 0.839 in the data set with Grb2 SH2, 0.528 with SHP2-C SH2 and 0.611 with c-Src SH2. Besides, the phosphorylation enrichment worked out at 0.978 with Fes; 0.609 with Jak2; 0.629 with Fyn; 0.559 with Fer (mouse); 0.655 with FGFR3; 0.497 with FGFR1. Moreover, the phosphorylation enrichment in the data set with Hck was 0.631; with MERTK it was 0.605; in the data set with c-Src, 0.524; with EPHB1, 0.72; in the data set with AncSZ, 0.978; with EPHB2, 0.667. Moreover, the phosphorylation enrichment in the data set with c-Abl (mouse) was 0.583.
Take GLVFLYMEKNQ [PRELP_Y156]: the SH2 binding enrichment with Grb2 SH2 came to 0.979; with SHP2-C SH2, 0.873; with c-Src SH2, 0.634. The phosphorylation enrichment in the data set with Fes is 1.18; in the data set with Jak2, 1.17; with Fyn, 0.304; in the data set on Fer (mouse) it was 0.635; with FGFR3, 0.719; with FGFR1, 0.339. The phosphorylation enrichment in the data set with Hck amounted to 0.337; with MERTK, 0.262; with c-Src, 0.37; in the data set with EPHB1, 0.607; in the data set with AncSZ, 0.932; in the data set with EPHB2 it was 0.523. Moreover, in the data set on c-Abl (mouse), the phosphorylation enrichment came to 0.854.
GMAHNYRNSSQ [AASS_Y188]: the values for the SH2 binding enrichment with Grb2 SH2, in the data set with SHP2-C SH2 and in the data set with c-Src SH2 were 0.702, 0.57 and 0.482, respectively. Further, the phosphorylation enrichment in the data set with Fes came out at 0.45; in the data set with Jak2 it was 0.434; with Fyn, 0.446; in the data set on Fer (mouse), 0.384; in the data set with FGFR3, 0.431; with FGFR1, 0.371. For the same sequence, the phosphorylation enrichment in the data set with Hck was 0.414; with MERTK it was 0.418; in the data set with c-Src, 0.386; with EPHB1, 0.255; with AncSZ it was 0.589; with EPHB2, 0.47. In addition, the phosphorylation enrichment in the data set on c-Abl (mouse) came to 0.313.
For GPGLVYRVANK [FLNB_Y1833_G1834R], the SH2 binding enrichment with Grb2 SH2 came to 0.999; with SHP2-C SH2 it was 0.722; with c-Src SH2 it was 0.499. Also, the phosphorylation enrichment with Fes turned out to be 0.793; in the data set with Jak2 it was 0.688; in the data set with Fyn, 0.485; in the data set with Fer (mouse) it was 0.445; with FGFR3 it was 0.597; with FGFR1, 0.515. Moreover, the phosphorylation enrichment with Hck was determined as 0.498; in the data set with MERTK, 0.399; in the data set on c-Src, 0.541; in the data set with EPHB1, 0.471; with AncSZ, 0.785; with EPHB2 it was 0.436. Moreover, the phosphorylation enrichment with c-Abl (mouse) was determined as 0.716.
For GPKSTYISSAG [GOLGA5_Y62_A67G], the values for the SH2 binding enrichment in the data set with Grb2 SH2, with SHP2-C SH2 and in the data set with c-Src SH2 were 0.713, 0.581 and 0.38, respectively. Moreover, the phosphorylation enrichment with Fes worked out at 0.587; with Jak2 it was 0.411; with Fyn it was 0.395; in the data set on Fer (mouse) it was 0.345; with FGFR3, 0.374; with FGFR1, 0.326. Further, the phosphorylation enrichment with Hck was determined as 0.319; with MERTK, 0.389; in the data set on c-Src, 0.365; with EPHB1 it was 0.298; with AncSZ, 0.496; with EPHB2, 0.382. For the same sequence, the phosphorylation enrichment in the data set on c-Abl (mouse) was determined as 0.464.
GSERDYTFDEL [EIF2S2_Y174_E177D_YF]: the results for the SH2 binding enrichment in the data set with Grb2 SH2, with SHP2-C SH2 and with c-Src SH2 were 0.919, 0.681 and 0.508, respectively. Further, the phosphorylation enrichment was found to be 1.18 with Fes; 1.21 in the data set with Jak2; 0.474 with Fyn; 0.582 in the data set on Fer (mouse); 0.871 in the data set with FGFR3; 0.583 with FGFR1. In addition, the phosphorylation enrichment came out at 0.528 with Hck; 0.515 with MERTK; 0.639 in the data set with c-Src; 0.577 with EPHB1; 1.25 in the data set on AncSZ; 0.564 in the data set with EPHB2. In the data set with c-Abl (mouse), the phosphorylation enrichment was 0.837.
For the sequence GSERDYTFEEL [EIF2S2_Y174_YF], the values for the SH2 binding enrichment in the data set with Grb2 SH2, with SHP2-C SH2 and with c-Src SH2 were 0.897, 0.583 and 0.537, respectively. The phosphorylation enrichment was determined as 1.27 with Fes; 1.07 in the data set with Jak2; 0.453 in the data set with Fyn; 0.499 with Fer (mouse); 0.749 in the data set with FGFR3; 0.602 with FGFR1. The phosphorylation enrichment was 0.505 with Hck; 0.479 with MERTK; 0.566 in the data set on c-Src; 0.571 in the data set with EPHB1; 1.14 in the data set with AncSZ; 0.598 with EPHB2. Also, the phosphorylation enrichment with c-Abl (mouse) stood at 0.738.
For the sequence GTYVIYVRFSG [FLNB_Y1687_G1691S], the SH2 binding enrichment with Grb2 SH2 amounted to 1.05; with SHP2-C SH2 it was 1.44; with c-Src SH2, 0.587. Further, the phosphorylation enrichment with Fes was 1.3; with Jak2 it was 1.31; with Fyn, 0.509; in the data set on Fer (mouse), 0.639; with FGFR3, 0.828; with FGFR1 it was 0.447. Further, the phosphorylation enrichment in the data set with Hck is 0.514; with MERTK, 0.455; in the data set on c-Src, 0.532; with EPHB1 it was 0.696; in the data set on AncSZ, 1.26; with EPHB2, 0.543. Also, the phosphorylation enrichment in the data set with c-Abl (mouse) came to 0.941.
